Laboratory results: article PMC2168087

B1: 6xHis-tagged PDZ1 domain of ZO-2 (aa 4-100) (domain or fragment)
chain: VIWEQYTVTLQKDSKRGFGIAVSGGRDNPHFENGETSIVISDVLPGGPADGLLQENDRVVMVNGTPMEDVLHSFAVQQLRKSGKIAAIVVKRPRKVQ
B2: 6xHis-tagged PDZ1 domain of ZO-1 (aa 19-113) (domain or fragment)
chain: WEQHTVTLHRAPGFGFGIAISGGRDNPHFQSGETSIVISDVLKGGPAEGQLQENDRVAMVNGVSMDNVEHAFAVQQLRKSGKNAKITIRRKKKVQ
B3: 6xHis-tagged PDZ1 domain of ZO-3 (aa 5-96) (domain or fragment)
chain: TIWEQHTATLYKDPRRGFGIAVSGGHDRASGSVVVSDVVPGSPAEGRLRTGDHIVMVNGVSVENVTSAFAIQILKTCTKTANVTVKRPRRVQ

Each binder was assayed against GST fusion protein with the cytoplasmic domain of claudin-1 (UniProt O88551) (assay: pull-down).
UniProt O88551, sequence (O88551 whole entry, the tested form may be a part): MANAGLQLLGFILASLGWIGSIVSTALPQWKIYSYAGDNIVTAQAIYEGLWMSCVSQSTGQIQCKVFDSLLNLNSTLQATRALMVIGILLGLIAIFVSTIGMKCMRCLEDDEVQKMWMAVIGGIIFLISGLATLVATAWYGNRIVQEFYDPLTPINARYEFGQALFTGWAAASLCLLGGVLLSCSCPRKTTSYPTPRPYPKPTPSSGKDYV

Kd [nM] | Binder
11 | B1
13 | B2
18 | B3
